Data reported in IntAct's records for PubMed 12717434.

B1: Multiple coagulation factor deficiency protein 2 (Homo sapiens), Q8NI22 (parent)
chain: MTMRSLLRTPFLCGLLWAFCAPGARAEEPAASFSQPGSMGLDKNTVHDQEHIMEHLEGVINKPEAEMSPQELQLHYFKMHDYDGNNLLDGLELSTAITHVHKEEGSEQAPLMSEDELINIIDGVLRDDDKNNDGYIDYAEFAKSLQ
partner: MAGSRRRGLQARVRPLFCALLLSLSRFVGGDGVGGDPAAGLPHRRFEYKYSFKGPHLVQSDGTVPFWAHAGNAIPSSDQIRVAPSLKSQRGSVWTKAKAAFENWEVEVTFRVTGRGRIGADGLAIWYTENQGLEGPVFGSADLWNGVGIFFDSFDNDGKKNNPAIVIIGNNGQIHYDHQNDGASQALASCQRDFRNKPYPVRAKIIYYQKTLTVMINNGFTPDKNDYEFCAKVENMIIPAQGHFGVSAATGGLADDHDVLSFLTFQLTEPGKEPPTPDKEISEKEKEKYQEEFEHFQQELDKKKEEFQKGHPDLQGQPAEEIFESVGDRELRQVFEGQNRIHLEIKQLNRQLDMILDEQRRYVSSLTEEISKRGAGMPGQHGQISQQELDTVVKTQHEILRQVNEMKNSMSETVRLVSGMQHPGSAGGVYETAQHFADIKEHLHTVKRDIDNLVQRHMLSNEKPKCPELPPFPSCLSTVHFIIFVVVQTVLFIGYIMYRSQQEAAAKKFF

Variants of: B1
Settings: with lman1_chlae LMAN1, Q9TU32

effect of a mutation on the interaction	Variant
disrupting interaction strength	MTMRSLLRTPFLCGLLWAFCAPGARAEEPAASFSQPGSMGLDKNTVHDQEHIMEHLEGVINKPEAEMSPQELQLHYFKMHDYDGNNLLDGLELSTAITHVHKEEGSEQAPLMSEDELINIIDGVLRDDDKNNDGYTDYAEFAKSLQ [I136T]
decreasing interaction strength	MTMRSLLRTPFLCGLLWAFCAPGARAEEPAASFSQPGSMGLDKNTVHDQEHIMEHLEGVINKPEAEMSPQELQLHYFKMHDYDGNNLLDGLELSTAITHVHKEEGSEQAPLMSEDELINIIDGVLRDDDKNNDGYVDYAEFAKSLQ [I136V]
disrupting interaction strength	MTMRSLLRTPFLCGLLWAFCAPGARAEEPAASFSQPGSMGLDKNTVHDQEHIMEHLEGVINKPEAEMSPQELQLHYFKMHDYDGNNLLDGLELSTAITHVHKEEGSEQAPLMSEDELINIIDGVLRDDEKNNDGYIDYAEFAKSLQ [D129E]
